Data taken from the RNAGym collection of RNA variant scans (doi:10.7554/elife.80360).

B1: Hairpin Ribozyme (parent)
chain: GUCCUCUUUCACGUGCGCGUGAAAGAGAGAAGUGAACCAGAGAAACACACGUUGUGGUAUAUUACCUGGUA

Variants of: B1
Test: self-cleavage, relative activity (ratio to wild type); higher = more cleavage; co-transcriptional
C37A G51U showed a self-cleavage of 0.563. With C38A U70A the self-cleavage was 0.165. C37U U52C showed a self-cleavage of 0.651. C37U U52G showed a self-cleavage of 0.527. Variant C38G C65G has a self-cleavage of 0.0624. In the case of C38A A43G, the self-cleavage is reported as 0.0867. For C38A A43C, the self-cleavage was 0.0755. In the case of C38A G51A, the self-cleavage is reported as 0.349. For C37U G69C, the self-cleavage was 0.364. For C38G G56A, the self-cleavage was 0.134. Variant C38G G56U has a self-cleavage of 0.0935. With C38G A45U the self-cleavage was 0.156. Variant C38G A41G has a self-cleavage of 0.618. For C38G A41C, the self-cleavage was 0.264. With C38A A41C the self-cleavage was 0.183. C38A A41U gave a self-cleavage of 0.286. C37U C38A showed a self-cleavage of 0.145. For C37U U53A, the self-cleavage was 0.775. Variant C37U U53G has a self-cleavage of 0.364. Work on C37A C65G yielded a self-cleavage of 0.124. Variant C38A C66G has a self-cleavage of 0.114. C38G A47G gave a self-cleavage of 0.116. C38G A47C showed a self-cleavage of 0.128. C37G A49U showed a self-cleavage of 0.153. With C37U C65U the self-cleavage was 0.316. Work on C37U C65G yielded a self-cleavage of 0.163. C38G U60A showed a self-cleavage of 0.116. C37G U63G gave a self-cleavage of 0.129. With C37G U63A the self-cleavage was 0.172. C38G G68A gave a self-cleavage of 0.247. With C37G C66U the self-cleavage was 0.286. C37G U62C showed a self-cleavage of 0.152. For C38U, the self-cleavage was 0.497. With C38A the self-cleavage was 0.171. C38G showed a self-cleavage of 0.181. With C37U C50U the self-cleavage was 0.289. With C37U C50A the self-cleavage was 0.116. C38G A71C showed a self-cleavage of 0.272. Variant C38A A45U has a self-cleavage of 0.143. C38A A45G gave a self-cleavage of 0.104. For C38U A39C, the self-cleavage was 0.152. For C38A U63C, the self-cleavage was 0.0636. With C37U A59U the self-cleavage was 0.16. Variant C37G C65A has a self-cleavage of 0.179. C37G C65U gave a self-cleavage of 0.334. C38G U70A showed a self-cleavage of 0.144. For C38A A47G, the self-cleavage was 0.106. C38G U53A showed a self-cleavage of 0.185. C38A U62G showed a self-cleavage of 0.139. C37U U63C gave a self-cleavage of 0.0912. C37U U63A gave a self-cleavage of 0.24. Work on C38G U55C yielded a self-cleavage of 0.0193. Variant C37U G51U has a self-cleavage of 0.81. With C38G U52A the self-cleavage was 0.169. Work on C38G U52G yielded a self-cleavage of 0.0784. For C38G U52C, the self-cleavage was 0.224. C37U C66G showed a self-cleavage of 0.195. C37U C66A showed a self-cleavage of 0.0721. C38A G56C gave a self-cleavage of 0.136. For C38A G56A, the self-cleavage was 0.178. In the case of C38A G57U, the self-cleavage is reported as 0.0968. Work on C38A G57C yielded a self-cleavage of 0.157. Variant C38A G57A has a self-cleavage of 0.0809. In the case of C38U A47C, the self-cleavage is reported as 0.276. For C38U A47G, the self-cleavage was 0.163. C37A U60G showed a self-cleavage of 0.171. C38A U58G showed a self-cleavage of 0.204. Variant C38G U67G has a self-cleavage of 0.124. C38G G51U showed a self-cleavage of 0.312. For C38G G51A, the self-cleavage was 0.271. C37G G54A showed a self-cleavage of 0.173. In the case of C37G C46A, the self-cleavage is reported as 0.174. In the case of C37G C46G, the self-cleavage is reported as 0.211. Work on C37G C46U yielded a self-cleavage of 0.122. In the case of C37G A64G, the self-cleavage is reported as 0.15. Variant C37U A44G has a self-cleavage of 0.112. C38G C66G gave a self-cleavage of 0.0755. In the case of C38G C66A, the self-cleavage is reported as 0.151. C38G C66U showed a self-cleavage of 0.21. Variant C38A A49U has a self-cleavage of 0.0928. Variant C37U U62C has a self-cleavage of 0.0928. C38G A43C showed a self-cleavage of 0.198. With C37G U55G the self-cleavage was 0.119. With C37G U67A the self-cleavage was 0.263. For C37G A41C, the self-cleavage was 0.282. C37G A41G gave a self-cleavage of 0.369. For C37U A64G, the self-cleavage was 0.456. Variant C37U A64U has a self-cleavage of 0.242. C37A G57A gave a self-cleavage of 0.145. Variant C37A G57U has a self-cleavage of 0.142. For C37G G42A, the self-cleavage was 0.117. For C37G G51U, the self-cleavage was 0.405. In the case of C38G C46G, the self-cleavage is reported as 0.161. Work on C37G G69U yielded a self-cleavage of 0.644. Work on C37U U70G yielded a self-cleavage of 0.505. Work on C38G C48G yielded a self-cleavage of 0.071. Work on C38G C48U yielded a self-cleavage of 0.108. Work on C38G U62G yielded a self-cleavage of 0.0875. Variant C37G A59C has a self-cleavage of 0.0453. C37G A59G gave a self-cleavage of 0.0514. C38G A39U gave a self-cleavage of 0.209. Work on C38A A71C yielded a self-cleavage of 0.228. C37A U58C showed a self-cleavage of 0.349. Variant C37A U58G has a self-cleavage of 0.269. C37U U58G showed a self-cleavage of 0.553. Variant C37U U58A has a self-cleavage of 0.48. C38G G42A gave a self-cleavage of 0.103. Work on C37U A41C yielded a self-cleavage of 0.567. For C38A G42A, the self-cleavage was 0.111. With C38A U67C the self-cleavage was 0.0697. Work on C38A G69A yielded a self-cleavage of 0.146. For C37G C38A, the self-cleavage was 0.152. For C37G C38G, the self-cleavage was 0.0384. With C38G A64C the self-cleavage was 0.0814. C38G A64G gave a self-cleavage of 0.118. In the case of C37G U58A, the self-cleavage is reported as 0.202. C37G U58C gave a self-cleavage of 0.335. C37G A45U showed a self-cleavage of 0.188. Work on C37G A45G yielded a self-cleavage of 0.103. C37G G40C gave a self-cleavage of 0.13. For C38A G54U, the self-cleavage was 0.135. C38A G54C showed a self-cleavage of 0.164. C38A G54A showed a self-cleavage of 0.0977. With C37U A39C the self-cleavage was 0.0611. For C37A U52G, the self-cleavage was 0.224. C37G U53G gave a self-cleavage of 0.238. With C37G U53C the self-cleavage was 0.586. C38A A39U gave a self-cleavage of 0.206. Work on C37G U60G yielded a self-cleavage of 0.245. C37G U60A showed a self-cleavage of 0.197. C37A G69C showed a self-cleavage of 0.467. For C37G C50U, the self-cleavage was 0.214. C37G C50A gave a self-cleavage of 0.14. With C37A U53C the self-cleavage was 0.515. C37A U53A showed a self-cleavage of 0.356. Variant C37U A47C has a self-cleavage of 0.16. Variant C37G A47U has a self-cleavage of 0.113. Work on C37G C48G yielded a self-cleavage of 0.0962. For C37G U70C, the self-cleavage was 0.531. For C38A U60C, the self-cleavage was 0.251. Variant C37U G54U has a self-cleavage of 0.443. With C37U G54A the self-cleavage was 0.397. With C37U G40C the self-cleavage was 0.172. C38G A44U showed a self-cleavage of 0.207. Work on C38A C46A yielded a self-cleavage of 0.0508. Variant C37G G56U has a self-cleavage of 0.0996. With C37U C48U the self-cleavage was 0.144. With C38A U53G the self-cleavage was 0.0628. With C37A G68U the self-cleavage was 0.332. For C37A U62C, the self-cleavage was 0.196. Variant C38G A61C has a self-cleavage of 0.133. C37G A61U gave a self-cleavage of 0.155. Work on C38A U52C yielded a self-cleavage of 0.193. Work on C38A U52A yielded a self-cleavage of 0.41. With C38A U52G the self-cleavage was 0.0831. In the case of C38G G57A, the self-cleavage is reported as 0.0627. For C37A G42U, the self-cleavage was 0.165. Work on C37A G40U yielded a self-cleavage of 0.129. C37A G40A gave a self-cleavage of 0.174. Work on C37A G40C yielded a self-cleavage of 0.158. Work on C38A U55A yielded a self-cleavage of 0.133. C38A U55G showed a self-cleavage of 0.183. C37U G68A showed a self-cleavage of 0.257. Variant C37U G57U has a self-cleavage of 0.221. Variant C37U G57C has a self-cleavage of 0.156. Work on C38G C50U yielded a self-cleavage of 0.0995. Work on C37G G68A yielded a self-cleavage of 0.14.
